Assay results reported in FireProtDB (doi:10.1021/bi00185a025).

Settings: Escherichia coli (strain K12); pH 7; 25 °C; Urea; CD; Sodium phosphate 5 mM; reversible: yes; whole UniProt chain shown

B1: Chemotaxis protein CheY wild type, P0AE67 (protein)
chain: MADKELKFLVVDDFSTMRRIVRNLLKELGFNNVEEAEDGVDALNKLQAGGYGFVISDWNMPNMDGLELLKTIRADGAMSALPVLMVTAEAKKENIIAAAQAGASGYVVKPFTAATLEEKLNKIFEKLGM
With B1 the denaturant m value was 1.6 kcal/mol/M, the “denaturant midpoint (higher = more stable)” value was 3.25 M and the unfolding free energy was 5.2 kcal/mol.
